The values below come from patent publication US11976099B2, “Compositions and methods for treatment of bone associated diseases” (THE NATIONAL INSTITUTE FOR BIOTECHNOLOGY IN THE NEGEV LTD., priority 2016, dated 2024).

One series deals with αvβ3 integrin (Homo sapiens, UniProt P05106+P06756). The note with it: natural ligand and inhibitor; read-out: binding affinities of αvβ3 integrin; cited from earlier work.
The test system of series [1] is CTX-I (carboxy-terminal collagen crosslinks). The series is described as follows: CTX-I serum ELISA in ovariectomized mice (bone resorption). The note with it: 0.1 mg/kg. It is filed as in vivo, C57 Rcc mice. Also noted: CTX-I serum-concentration: unit not given here. As for the experimental part:
In order to assess the effect of M-CSF variant on bone resorption, 10 weeks old C57 Rcc mice were ovariectomized resulting in a decrease in estrogen secretion similar to what occurs in osteoporosis. Two weeks post-surgery the mice were treated with M-CSF5.6 variant in three concentrations-0.1 mg/kg, 0.5 mg/kg and 15 mg/kg, in order to test the effect on bone resorption and to find the optimal dosage. For a period of 4 days, 0.1 and 0.5 mg/kg M-CSF5.6 treated mice received subcutaneous injections twice a day, while 15 mg/kg M-CSF5.6 treated mice received a daily subcutaneous injection. Mice were sacrificed 18-24 hours after the final injection. The amounts of type I collagen fragments in the blood were measured using CTX-I (carboxy-terminal collagen crosslinks) ELISA.
Animals were randomly divided into 2 control groups (SHAM, PBS) and 4 treatment groups (0.1, 0.5 and 15 mg/kg M-CSF5.6 and 0.1 mg/kg Alendronate as positive control). Except for the SHAM group, all animals were ovariectomized. *, ^, + represent a Haemolytic-serum sample, an unsuccessful ovariectomy procedure (as determined post mortem) and an outlier, respectively. CTX-I serum-concentration values of mice with unsuccessful ovariectomy were excluded from the analysis.

A further series addresses human c-FMS (Homo sapiens, UniProt P07333). The note with it: previously disclosed (Elegheert et al. 2012); read-out: KD of M-CSF to c-FMS receptor; cited from earlier work.
The nature of series [2]: BS^3 chemical cross linking / SDS-PAGE dimerization assay. The class given is physicochemical. On the procedure:
Then, Tris was added to a final concentration of 30 mM and the mixture was incubated for 15 min at room temperature. Samples were denaturized and loaded on 15% SDS-PAGE. The gels were stained with coomassie blue (InstantBlue, Expedeon, CA, USA) and visualized with MiniBis pro (DNR Bio-Imaging Systems, Jerusalem, Israel).
BS^3 crosslinking assay—Human (4 μg) and murine M-CSFWT (1 μg), M-CSFC31S (1 μg) and M-CSFC31S,M27R (2.5 μg) were incubated with different concentrations of BS^3 [bis(sulfosuccinimidyl)suberate] (ThermoFisher Scientific, MA, USA) cross linker (0, 25 μM, 100 μM, 250 μM, 500 μM, 1000 μM and 2500 μM) for 30 min at room temperature. Then, […] was added to a final concentration of 30 mM, and the mixture was incubated for 15 min at room temperature. Samples were denaturized with sample buffer, boiled, and loaded on 15% SDS-PAGE for protein separation. The gels were stained with InstantBlue staining (Expedeon, CA, USA) for 40 min, followed by two washing steps with double distilled water. The gels were visualized with MiniBis pro (DNR Bio-Imaging Systems, Jerusalem, Israel).
Experiments were conducted in order to verify that the purified variants are incapable of dimerizing. The purified variants were incubated with a cross linker reagent (BS^3 [bis(sulfosuccinimidyl)suberate]) to enhance and visualize non-covalent intermolecular interactions. Following incubation, the reactions were stopped and the samples were loaded in denaturized conditions on a protein gel.
To validate the structural and computational analysis and to verify that M-CSFC31S,M27R is indeed a monomer, several biophysical assays were conducted. First, purified murine and human M-CSFWT, M-CSFC31S and M-CSFC31S,M27R were crosslinked via lysine residues using different amounts of BS^3 reagent [bis(sulfosuccinimidyl)suberate], and the proteins sizes were evaluated using SDS-PAGE (FIG. 16A). Murine M-CSFWT served as positive control, since it has a lysine in the dimerization site (K68), which facilitates the intermolecular cross-linking of the two monomers in the dimer. […] The dimer band became more prominent at higher BS^3 concentrations. It is likely that the non-covalent dimerization allows other lysines in M-CSFC31S to come into close proximity and crosslink.

The subject of another series is mature osteoclasts. The series is described as follows: Actin ring formation in mature osteoclasts. As to conditions: inhibitors 5 μM added to mature osteoclasts for 24 h; F-actin staining. It is filed as cell-based, mouse. As for the experimental part: FIG. 23 are example pictures showing Actin ring formation in mature osteoclasts incubated with M-CSFRGD variants. Murine BMMs were allowed to differentiate into osteoclasts in the presence of M-CSF and RANKL for 72 h. Then, the cells were incubated for additional 24 h without (positive control) or with inhibitors (5 μM) followed by fixation and staining for F-actin and nuclei. Cells were able to form a solid actin ring (white arrowheads), scattered actin ring (white arrows) or amorphous actin distribution (barbed arrowheads). Pictures are representatives of 35 images acquired from five different wells per sample.
For a mature osteoclast to resorb bone properly, it must form unique structure termed “sealing zone”; this structure consists of an actin ring made from a dense actin mesh connected by adhesion complexes called podosomes. The formation of the actin ring involves several stages: at the beginning, podosomes are formed throughout the cell in a scattered manner, then groups of podosomes form small actin structures named belts and upon osteoclast maturation, the belts are moving to the cell periphery, cluster, and form the actin ring. Podosomes contain high levels of αvβ3 integrin which is essential for the formation of a proper actin ring with condensed podosome network. […]

Where “and” joins values, the source holds several entries; their conditions need not be identical. Identical values can stand only once.

Sequence of αvβ3 integrin (P06756 31-1048): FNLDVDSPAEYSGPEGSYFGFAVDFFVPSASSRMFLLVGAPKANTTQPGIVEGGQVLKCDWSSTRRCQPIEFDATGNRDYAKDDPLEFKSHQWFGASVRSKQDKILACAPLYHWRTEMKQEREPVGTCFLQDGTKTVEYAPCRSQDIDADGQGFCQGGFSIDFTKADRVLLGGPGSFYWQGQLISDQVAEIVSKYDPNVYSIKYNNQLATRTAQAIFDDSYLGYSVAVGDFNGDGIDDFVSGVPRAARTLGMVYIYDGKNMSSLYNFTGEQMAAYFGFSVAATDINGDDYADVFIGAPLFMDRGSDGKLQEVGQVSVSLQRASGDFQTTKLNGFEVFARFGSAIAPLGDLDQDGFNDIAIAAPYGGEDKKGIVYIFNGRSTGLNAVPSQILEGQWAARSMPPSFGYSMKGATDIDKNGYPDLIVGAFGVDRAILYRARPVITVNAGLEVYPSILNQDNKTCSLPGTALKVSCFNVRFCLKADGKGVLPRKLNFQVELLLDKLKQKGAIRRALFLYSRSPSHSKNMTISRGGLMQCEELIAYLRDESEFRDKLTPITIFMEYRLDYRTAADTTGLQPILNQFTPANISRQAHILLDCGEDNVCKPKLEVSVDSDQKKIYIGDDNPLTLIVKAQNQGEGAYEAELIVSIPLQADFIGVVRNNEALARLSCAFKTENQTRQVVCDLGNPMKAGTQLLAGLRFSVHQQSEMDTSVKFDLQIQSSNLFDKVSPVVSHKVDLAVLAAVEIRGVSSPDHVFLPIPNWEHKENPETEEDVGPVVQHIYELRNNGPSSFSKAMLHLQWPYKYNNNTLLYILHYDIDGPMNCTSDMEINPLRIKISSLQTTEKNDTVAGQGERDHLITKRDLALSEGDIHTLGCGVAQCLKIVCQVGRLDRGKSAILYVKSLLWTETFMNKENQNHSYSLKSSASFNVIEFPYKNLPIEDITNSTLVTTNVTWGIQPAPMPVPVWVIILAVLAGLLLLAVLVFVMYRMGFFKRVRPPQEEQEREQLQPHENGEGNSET
Sequence of αvβ3 integrin (P05106 27-788): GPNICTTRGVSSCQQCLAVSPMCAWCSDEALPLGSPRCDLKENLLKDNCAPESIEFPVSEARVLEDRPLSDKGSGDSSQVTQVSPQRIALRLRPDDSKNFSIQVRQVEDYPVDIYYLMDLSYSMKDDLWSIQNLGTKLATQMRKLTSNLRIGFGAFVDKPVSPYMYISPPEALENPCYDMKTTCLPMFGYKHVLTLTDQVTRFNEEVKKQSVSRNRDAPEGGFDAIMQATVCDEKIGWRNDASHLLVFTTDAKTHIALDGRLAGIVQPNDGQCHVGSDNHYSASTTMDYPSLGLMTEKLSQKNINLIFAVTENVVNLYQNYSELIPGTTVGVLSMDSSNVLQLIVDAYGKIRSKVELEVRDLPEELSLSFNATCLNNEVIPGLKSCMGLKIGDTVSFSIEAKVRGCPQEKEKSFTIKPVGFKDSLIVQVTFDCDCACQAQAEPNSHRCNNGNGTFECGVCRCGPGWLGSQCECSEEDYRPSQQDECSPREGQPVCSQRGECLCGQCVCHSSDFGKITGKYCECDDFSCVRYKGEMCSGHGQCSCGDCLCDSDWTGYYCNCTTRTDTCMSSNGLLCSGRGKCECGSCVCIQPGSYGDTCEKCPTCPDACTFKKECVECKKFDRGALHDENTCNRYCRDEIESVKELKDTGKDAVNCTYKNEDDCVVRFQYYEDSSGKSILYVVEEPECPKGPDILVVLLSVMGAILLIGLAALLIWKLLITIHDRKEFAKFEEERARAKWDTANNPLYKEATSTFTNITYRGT
Sequence of human c-FMS (P07333 20-972): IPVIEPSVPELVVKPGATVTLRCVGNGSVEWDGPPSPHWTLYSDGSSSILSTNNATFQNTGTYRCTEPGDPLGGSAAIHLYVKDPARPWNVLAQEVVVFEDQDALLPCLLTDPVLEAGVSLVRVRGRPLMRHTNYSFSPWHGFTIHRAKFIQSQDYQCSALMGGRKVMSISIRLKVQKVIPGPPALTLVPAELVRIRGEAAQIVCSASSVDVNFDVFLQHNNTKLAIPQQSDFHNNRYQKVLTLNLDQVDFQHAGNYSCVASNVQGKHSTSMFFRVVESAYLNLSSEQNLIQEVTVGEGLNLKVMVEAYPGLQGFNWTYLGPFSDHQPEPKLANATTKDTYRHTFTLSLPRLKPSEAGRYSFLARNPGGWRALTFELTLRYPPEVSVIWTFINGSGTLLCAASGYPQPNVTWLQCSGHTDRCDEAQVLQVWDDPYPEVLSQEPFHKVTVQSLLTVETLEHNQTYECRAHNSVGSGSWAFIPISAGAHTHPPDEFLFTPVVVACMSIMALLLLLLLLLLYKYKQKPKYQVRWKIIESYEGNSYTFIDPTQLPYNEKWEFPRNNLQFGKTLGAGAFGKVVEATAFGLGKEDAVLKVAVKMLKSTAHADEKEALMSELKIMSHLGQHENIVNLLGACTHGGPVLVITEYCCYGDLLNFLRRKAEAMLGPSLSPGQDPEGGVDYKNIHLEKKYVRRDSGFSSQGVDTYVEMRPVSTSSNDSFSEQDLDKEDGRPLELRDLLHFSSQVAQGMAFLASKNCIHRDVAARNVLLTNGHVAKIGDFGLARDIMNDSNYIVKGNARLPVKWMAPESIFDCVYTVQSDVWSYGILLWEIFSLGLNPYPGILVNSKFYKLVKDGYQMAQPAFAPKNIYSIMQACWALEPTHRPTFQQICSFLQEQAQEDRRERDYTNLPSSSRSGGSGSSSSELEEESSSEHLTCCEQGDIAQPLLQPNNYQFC

Turning to cRGDfV [reference compound], the Kd at αvβ3 integrin was 0.158 µM.
For the molecule “vitronectin: one of the ligands of αvβ3 integrin”, the Kd in the series with αvβ3 integrin was 0.0407 µM.
For `NCCCC(O)(P(=O)(O)O)P(=O)(O)O` [Alendronate, reference compound], the “change in CTX-I levels compared to the PBS treated animals” value in series [1] is recorded as “significant decrease in CTX-I levels”. Further, the CTX-I serum-concentration in series [1] (individual animals n 1-6, * haemolytic sample) is 25.4 and 20.03* and 18.21* and 27.86* and 19.1 and 20.9.

B1: M-CSF: native monocyte/macrophage colony stimulating factor, natural ligand of c-FMS (Uniprot P09603) (protein, UniProt P09603 33-554, looked up)
Macrophage colony-stimulating …: EEVSEYCSHMIGSGHLQSLQRLIDSQMETSCQITFEFVDQEQLKDPVCYLKKAFLLVQDIMEDTMRFRDNTPNAIAIVQLQELSLRLKSCFTKDYEEHDKACVRTFYETPLQLLEKVKNVFNETKNLLDKDWNIFSKNCNNSFAECSSQDVVTKPDCNCLYPKAIPSSDPASVSPHQPLAPSMAPVAGLTWEDSEGTEGSSLLPGEQPLHTVDPGSAKQRPPRSTCQSFEPPETPVVKDSTIGGSPQPRPSVGAFNPGMEDILDSAMGTNWVPEEASGEASEIPVPQGTELSPSRPGGGSMQTEPARPSNFLSASSPLPASAKGQQPADVTGTALPRVGPVRPTGQDWNHTPQKTDHPSALLRDPPEPGSPRISSLRPQGLSNPSTLSAQPQLSRSHSSGSVLPLGELEGRRSTRDRRSPAEPEGGPASEGAARPLPRFNSVPLTDTGHERQSEGSFSPQLQESVFHLLVPSVILVLLAVGGLLFYRWRRRSHQEPQRADSPLEQPEGSPLTQDDRQVELPV
On to B1, for which the Kd with human c-FMS was 0.0136 µM.

B2: murine M-CSFWT: wild-type murine M-CSF, positive control in cross-linking (protein)
chain: KEVSEHCSHMIGNGHLKVLQQLIDSQMETSCQIAFEFVDQEQLDDPVCYLKKAFFLVQDIIDETMRFKDNTPNANATERLQELSNNLNSCFTKDYEEQNKACVRTFHETPLQLLEKIKNFFNETKNLLEKDWNIFTKNCNNSFAKCSSRDVVTKPDCNCLYPKATPSSDPASASPHQPPAPSMAPLAGLAWDDSQRTEGSSLLPSELPLRIEDPGSAKQRPPR
For B2, the “monomer/dimer bands after BS^3 cross linking” value in series [2] (Example 11, BS^3 0-2500 μM, SDS-PAGE, FIG. 16A) was “almost entirely in a band with a molecular weight that fits the dimer size”.

B3: M-CSFαvβ3: variant 4.22 with histidine to alanine mutations at positions 9 and 15; binds αvβ3 integrin but not c-FMS (protein)
chain: EEVSEYCSAMIGSGALQSLQRLIDQTSRGDSPSITFEFVDQEQLKDPVCYLKKAFLLVQDIMEDTMRFRDNTPNAIAIVQLQELSLRLKSCFTKDYEEHDKACVRTFYETPLQLLEKVKNVFNETKNLLDKDWNIFSKNCNNSFAECSSQGHERQSEGS
modifications: left off: small tags and cut ends
Turning to B3, the “dimerization after BS^3 cross linking” value in series [2] (Example 4, BS^3 up to 2500 μM, FIG. 8) is “did not show any dimerization”. The actin ring formation entry with mature osteoclasts is “decreased the condensation and density of podosomes”.
